Assays:
[1] = target: GST-tagged version of human FcγRIIIA (human) (UniProt P08637); assay: AlphaLISA vs biotin-huIgG, supernatant, round 3
[2] = target: GST-tagged version of human FcγRIIIA (human) (UniProt P08637); assay: AlphaLISA vs biotin-huIgG, supernatant, round 2
[3] = target: GST-tagged version of human FcγRIIIA (human) (UniProt P08637); assay: AlphaLISA vs biotin-huIgG, supernatant, round 1

Chain of GST-tagged version of human FcγRIIIA (human) (P08637 17-208 limits assumed): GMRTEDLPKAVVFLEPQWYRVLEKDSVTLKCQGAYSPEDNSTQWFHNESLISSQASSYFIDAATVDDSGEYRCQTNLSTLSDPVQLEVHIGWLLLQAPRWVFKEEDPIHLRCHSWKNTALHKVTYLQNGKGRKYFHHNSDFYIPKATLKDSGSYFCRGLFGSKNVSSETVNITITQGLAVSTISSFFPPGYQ

Which Alpha signal [1] does the source give for “scFv-Fc/Fc, K290G in scFv-Fc (from UniProt P0DOX5 218-449; P0DOX5 218-449) (Fc fusion)” here?
Its Alpha signal is 55700.

And the % inhibition [2]?
The % inhibition was 33.1%.

What about the Alpha signal [2] of the same substance?
Its Alpha signal is 53800.

And the % inhibition [3]?
Its % inhibition is 31.1%.

What about the Alpha signal [3] of the same substance?
The Alpha signal was 52400.

Which results are given for “scFv-Fc/Fc, K290W in scFv-Fc (Fc fusion)”?
% inhibition [1]: 24.2%; Alpha signal [1]: 59500; % inhibition [2]: 34.6%; Alpha signal [2]: 52600; % inhibition [3]: 29.1%; Alpha signal [3]: 53900

“scFv-Fc/Fc, K334L in dummy Fc (Fc fusion)” was tested. Which % inhibition [1] did it give?
Its % inhibition is 68.1%.

And the Alpha signal [1]?
The Alpha signal was 25100.

And the % inhibition [2]?
The % inhibition was 70.9%.

And the Alpha signal [2]?
The Alpha signal was 23400.

What about the % inhibition [3] of the same substance?
Its % inhibition is 64.9%.

What about the Alpha signal [3] of the same substance?
Its Alpha signal is 26700.

For “scFv-Fc/Fc, Y296W in scFv-Fc (Fc fusion)”, which % inhibition [1] is on record?
The % inhibition was 68.5%.

And the Alpha signal [1]?
Its Alpha signal is 24800.

What about the % inhibition [2] of the same substance?
The % inhibition was 72.9%.

And the Alpha signal [2]?
The Alpha signal was 21800.

What about the % inhibition [3] of the same substance?
Its % inhibition is 66.7%.

And the Alpha signal [3]?
The Alpha signal was 25300.

Which results are given for “scFv-Fc/Fc, K288T in dummy Fc (Fc fusion)”?
Alpha signal [1]: 50300; Alpha signal [2]: 53100; % inhibition [3]: 26.7%; Alpha signal [3]: 55700

Which % inhibition [1] does the source give for “scFv-Fc/Fc, F243V in dummy Fc (Fc fusion)” here?
The % inhibition was 62.8%.

And the Alpha signal [1]?
The Alpha signal was 29300.

And the % inhibition [2]?
The % inhibition was 60.1%.

What about the Alpha signal [2] of the same substance?
The Alpha signal was 32100.

What about the % inhibition [3] of the same substance?
The % inhibition was 49%.

And the Alpha signal [3]?
Its Alpha signal is 38800.

What does the source list for “scFv-Fc/Fc, T307P in dummy Fc (Fc fusion)”?
% inhibition [1]: 82.1%; Alpha signal [1]: 14100; % inhibition [2]: 75.1%; Alpha signal [2]: 20000; % inhibition [3]: 75%; Alpha signal [3]: 19000

Which results are given for “scFv-Fc/Fc, T307S in scFv-Fc (Fc fusion)”?
% inhibition [1]: 34.6%; Alpha signal [1]: 51400; % inhibition [2]: 42.1%; % inhibition [3]: 41.3%

What does the source list for “scFv-Fc/Fc, A330M in scFv-Fc (Fc fusion)”?
% inhibition [1]: 26.2%; Alpha signal [1]: 58000; % inhibition [2]: 36.6%; Alpha signal [2]: 51000; % inhibition [3]: 27.1%; Alpha signal [3]: 55400

Which Alpha signal [1] does the source give for “scFv-Fc/Fc, F243I in dummy Fc (Fc fusion)” here?
The Alpha signal was 23800.

What about the Alpha signal [2] of the same substance?
Its Alpha signal is 25800.

What about the % inhibition [3] of the same substance?
The % inhibition was 60.8%.

And the Alpha signal [3]?
The Alpha signal was 29800.

Reference: patent publication US20140112926A1
